One data set deals with LexA wt (UniProt P0A7C2 1-202). Kind of data set: SPR; 150 nM LexA; LexA-operator SPR: 20 mM NaH2PO4 pH 7.3, 0.14 M NaCl, 0.005% P20, 25 C; RecA-SKBT25: 20 mM NaH2PO4 pH 7.3, 1 mM ATPgS, 2 mM MgCl2, 0.05 mM Ellman's reagent, on. The settings on record: protein: recombinant; chain copies: 2; label: 3' TEG-biotin on S9; S7 pairs with the 3' 24 nt and S9 with the 5' 15 nt of S10; nick between S7 and S9; blunt.

Data set [1] deals with the molecule itself. The data set is described as follows: cross-linking; intermolecular disulphide between Cys24 of two LexA(M24C) subunits on oxidation with 0.5 mM 1,10-phenanthroline and 0.1 mM CuSO4, 30 min, room temperature.

B1: tisB operator SPR fragment (dsDNA)
DNA 1: GTTACTACTCGAGCGATTACTGTTTATTTATACAGTAAA
DNA 2: TTTACTGTATAAATAAACAGTAAT
DNA 3: CGCTCGAGTAGTAAC
Take B1: the binding result in the data set with LexA wt is reported as “binds”.

B2: LexA(M24C), oxidized (disulphide-locked dimer in the DNA-binding state) (natural protein, E. coli, UniProt P0A7C2 1-202, looked up)
chain: MKALTARQQEVFDLIRDHISQTGCPPTRAEIAQRLGFRSPNAAEEHLKALARKGVIEIVSGASRGIRLLQEEEEGLPLVGRVAAGEPLLAQQHIEGHYQVDPSLFKPNADFLLRVSGMSMKDIGIMDGDLLAVHKTQDVRNGQVVVARIDDEVTVKRLKKQGNKVELLPENSEFKPIVVDLRQQSFTIEGLAVGVIRNGDWL
modifications: intermolecular disulphide bond between the Cys24 residues of the two subunits
notes: LexA repressor, E. coli, single-cysteine mutant M24C; The reduced form (20 mM DTT) was also used in the cleavage assay but is not made a molecule here; also called oxidized LexA(M24C); source: overexpressed from plasmid pLexAM24C, purified (Ni-NTA); oxidized with 0.5 mM 1,10-phenanthroline and 0.1 mM CuSO4, 30 min, room temperature
Take B2: the binding result in data set [1] was “binds”.

The values above are taken from PMC3834820, “Structural insight into LexA–RecA* interaction” (Nucleic Acids Research, 2013).
